Experimental data published in patent publication US20230042176.

B1: UBE3A, recombinant, as used in the in vitro ubiquitination assay (ubiquitination kit K-230, Boston Biochem) (protein)
chain: MEKLHQCYWKSGEPQSDDIEASRMKRAAAKHLIERYYHQLTEGCGNEACTNEFCASCPTFLRMDNNAAAIKALELYKINAKLCDPHPSKKGASSAYLENSKGAPNNSCSEIKMNKKGARIDFKDVTYLTEEKVYEILELCREREDYSPLIRVIGRVFSSAEALVQSFRKVKQHTKEELKSLQAKDEDKDEDEKEKAACSAAAMEEDSEASSSRIGDSSQGDNNLQKLGPDDVSVDIDAIRRVYTRLLSNEKIETAFLNALVYLSPNVECDLTYHNVYSRDPNYLNLFIIVMENRNLHSPEYLEMALPLFCKAMSKLPLAAQGKLIRLWSKYNADQIRRMMETFQQLITYKVISNEFNSRNLVNDDDAIVAASKCLKMVYYANVVGGEVDTNHNEEDDEEPIPESSELTLQELLGEERRNKKGPRVDPLETELGVKTLDCRKPLIPFEEFINEPLNEVLEMDKDYTFFKVETENKFSFMTCPFILNAVTKNLGLYYDNRIRMYSERRITVLYSLVQGQQLNPYLRLKVRRDHIIDDALVRLEMIAMENPADLKKQLYVEFEGEQGVDEGGVSKEFFQLVVEEIFNPDIGMFTYDESTKLFWFNPSSFETEGQFTLIGIVLGLAIYNNCILDVHFPMVVYRKLMGKKGTFRDLGDSHPVLYQSLKDLLEYEGNVEDDMMITFQISQTDLFGNPMMYDLKENGDKIPITNENRKEFVNLYSDYILNKSVEKQFKAFRRGFHMVTNESPLKYLFRPEEIELLICGSRNLDFQALEETTEYDGGYTRDSVLIREFWEIVHSFTDEQKRLFLQFTTGTDRAPVGGLGKLKMIIAKNGPDTERLPTSHTCFNVLLLPEYSSKEKLKERLLKAITYAKGFGML
B2: Ube3a, endogenous, in primary mouse cortical neurons (WT against Ube3a m-/p+ mice) (protein)
chain: MATACKRSPGESQSEDIEASRMKRAAAKHLIERYYHQLTEGCGNEACTNEFCASCPTFLRMDNNAAAIKALELYKINAKLCDPHPSKKGASSAYLENSKGASNNSEIKMNKKEGKDFKDVIYLTEEKVYEIYEFCRESEDYSPLIRVIGRIFSSAEALVLSFRKVKQHTKEELKSLQEKDEDKDEDEKEKAACSAAAMEEDSEASSSRMGDSSQGDNNVQKLGPDDVTVDIDAIRRVYSSLLANEKLETAFLNALVYLSPNVECDLTYHNVYTRDPNYLNLFIIVMENSNLHSPEYLEMALPLFCKAMCKLPLEAQGKLIRLWSKYSADQIRRMMETFQQLITYKVISNEFNSRNLVNDDDAIVAASKCLKMVYYANVVGGDVDTNHNEEDDEEPIPESSELTLQELLGDERRNKKGPRVDPLETELGVKTLDCRKPLISFEEFINEPLNDVLEMDKDYTFFKVETENKFSFMTCPFILNAVTKNLGLYYDNRIRMYSERRITVLYSLVQGQQLNPYLRLKVRRDHIIDDALVRLEMIAMENPADLKKQLYVEFEGEQGVDEGGVSKEFFQLVVEEIFNPDIGMFTYDEATKLFWFNPSSFETEGQFTLIGIVLGLAIYNNCILDVHFPMVVYRKLMGKKGTFRDLGDSHPVLYQSLKDLLEYEGSVEDDMMITFQISQTDLFGNPMMYDLKENGDKIPITNENRKEFVNLYSDYILNKSVEKQFKAFRRGFHMVTNESPLKYLFRPEEIELLICGSRNLDFQALEETTEYDGGYTRESVVIREFWEIVHSFTDEQKRLFLQFTTGTDRAPVGGLGKLKMIIAKNGPDTERLPTSHTCFNVLLLPEYSSKEKLKERLLKAITYAKGFGML

Columns and labels:
[1] = biological target: Flag-tagged BK (Flag-BK), overexpressed in HEK293 cells
[2] = biological target: BK, endogenous, in primary mouse cortical neurons, Q08460
Sequence of BK, endogenous, in primary mouse cortical neurons, Q08460 (Q08460 whole entry): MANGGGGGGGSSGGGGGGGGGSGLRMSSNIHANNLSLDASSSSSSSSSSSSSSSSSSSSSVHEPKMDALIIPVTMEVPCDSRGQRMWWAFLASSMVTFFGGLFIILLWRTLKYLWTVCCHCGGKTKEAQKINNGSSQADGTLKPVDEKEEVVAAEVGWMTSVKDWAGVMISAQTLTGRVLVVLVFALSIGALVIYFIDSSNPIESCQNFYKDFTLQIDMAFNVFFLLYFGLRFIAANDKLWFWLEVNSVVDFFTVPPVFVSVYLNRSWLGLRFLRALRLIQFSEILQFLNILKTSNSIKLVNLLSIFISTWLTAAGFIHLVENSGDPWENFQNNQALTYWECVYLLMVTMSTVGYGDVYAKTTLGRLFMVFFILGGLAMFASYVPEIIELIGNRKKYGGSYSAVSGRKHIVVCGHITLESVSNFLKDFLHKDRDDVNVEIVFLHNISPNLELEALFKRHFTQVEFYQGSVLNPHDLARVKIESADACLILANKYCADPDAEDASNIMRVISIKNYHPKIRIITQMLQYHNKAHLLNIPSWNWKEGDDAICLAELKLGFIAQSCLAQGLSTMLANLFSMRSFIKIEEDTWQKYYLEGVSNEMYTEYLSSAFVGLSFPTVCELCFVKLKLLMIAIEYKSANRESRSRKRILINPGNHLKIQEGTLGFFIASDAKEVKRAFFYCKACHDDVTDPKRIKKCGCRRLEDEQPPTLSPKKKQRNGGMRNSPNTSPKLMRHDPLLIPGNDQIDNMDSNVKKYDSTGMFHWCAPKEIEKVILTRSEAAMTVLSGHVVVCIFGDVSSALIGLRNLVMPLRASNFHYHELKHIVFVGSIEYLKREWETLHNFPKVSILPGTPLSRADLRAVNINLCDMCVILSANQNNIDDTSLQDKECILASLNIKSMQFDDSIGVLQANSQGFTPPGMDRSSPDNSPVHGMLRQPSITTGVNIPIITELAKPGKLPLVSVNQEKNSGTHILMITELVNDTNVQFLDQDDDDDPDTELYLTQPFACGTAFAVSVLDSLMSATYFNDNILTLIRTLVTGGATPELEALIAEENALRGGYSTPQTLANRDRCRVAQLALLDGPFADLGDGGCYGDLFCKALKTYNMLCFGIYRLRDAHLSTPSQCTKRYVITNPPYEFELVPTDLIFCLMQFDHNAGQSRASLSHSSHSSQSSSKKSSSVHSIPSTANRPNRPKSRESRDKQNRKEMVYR

| Protein | in vitro ubiquitination assay (E1 Ube1, E2 UbcH5c, HA-Ub) [1] | endogenous BK ubiquitination (BK IP, ubiquitin antibody blot, primary mouse cortical neurons) [2] |
| --- | --- | --- |
| B1 | BK ubiquitination by UBE3A was further confirmed by an in vitro ubiquitination assay using recombinant proteins (FIG. 11C) |  |
| B2 |  | BK ubiquitination by UBE3A was further confirmed ... by assessing endogenous BK ubiquitination using mouse cortical neurons derived from either WT or Ube3a^m-/p+ mice (FIGS. 11D-11E) |
